Measurements reported in the supplement of paper PMC9428881.
± gives the standard error.

Experiment: background-corrected fluorescence of 3'-dye-labeled ssDNA relative to brightest sequence (3'-GCGCG) (fraction); higher = brighter dye fluorescence (less quenching)
Outline: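 Arrays of single-stranded DNA, with a 3' Cy3 or Cy5 dye beside each of 1024 permuted pentamers, were built on glass slides through light-directed phosphoramidite synthesis. They were washed for 2 h at r.t. in acetonitrile and scanned at 532 or 635 nm, once before and once after overnight ethylenediamine/ethanol deprotection. Fluorescence is reported after subtracting unlabeled-oligo background and normalizing to the brightest sequence. Averages cover 10 features per array and at least 3 syntheses.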

| Sequence | background-corrected fluorescence (dye: Cy3 (3' terminal)) | background-corrected fluorescence (dye: Cy5 (3' terminal)) |
| --- | --- | --- |
| TTTTTTGCTGATCAGCATGCTTTTTTTTTTTTTTTACGTA [ATGCA] | 0.61 ± 0.016 | 0.465 ± 0.024 |
| TTTTTTGCTGATCATCAGCATTTTTTTTTTTTTTTACGGT [TGGCA] | 0.664 ± 0.018 | 0.565 ± 0.045 |
| TTTTTTGCTGATCATCATCATTTTTTTTTTTTTTTACGGG [GGGCA] | 0.6553 ± 0.0063 | 0.579 ± 0.05 |
| TTTTTTGCTGATCATCATGATTTTTTTTTTTTTTTACGGC [CGGCA] | 0.594 ± 0.029 | 0.433 ± 0.049 |
| TTTTTTGCTGATCATCATGCTTTTTTTTTTTTTTTACGGA [AGGCA] | 0.683 ± 0.03 | 0.588 ± 0.029 |
| TTTTTTGCTGATCATGAGCATTTTTTTTTTTTTTTACGCT [TCGCA] | 0.5 ± 0.065 | 0.391 ± 0.029 |
| TTTTTTGCTGATCATGATCATTTTTTTTTTTTTTTACGCG [GCGCA] | 0.973 ± 0.017 | 0.876 ± 0.027 |
| TTTTTTGCTGATCATGATGATTTTTTTTTTTTTTTACGCC [CCGCA] | 0.467 ± 0.021 | 0.393 ± 0.027 |
| TTTTTTGCTGATCATGATGCTTTTTTTTTTTTTTTACGCA | 0.525 ± 0.032 | 0.445 ± 0.028 |
| TTTTTTGCTGATCATGCGCATTTTTTTTTTTTTTTACGAT [TAGCA] | 0.519 ± 0.035 | 0.429 ± 0.045 |
| TTTTTTGCTGATCATGCTCATTTTTTTTTTTTTTTACGAG [GAGCA] | 0.62 ± 0.017 | 0.507 ± 0.078 |
| TTTTTTGCTGATCATGCTGATTTTTTTTTTTTTTTACGAC [CAGCA] | 0.486 ± 0.025 | 0.38 ± 0.035 |
| TTTTTTGCTGATCATGCTGCTTTTTTTTTTTTTTTACGAA [AAGCA] | 0.575 ± 0.032 | 0.452 ± 0.026 |
| TTTTTTGCTGATGAGCAGCATTTTTTTTTTTTTTTACCTT [TTCCA] | 0.463 ± 0.018 | 0.351 ± 0.018 |
| TTTTTTGCTGATGAGCATCATTTTTTTTTTTTTTTACCTG [GTCCA] | 0.499 ± 0.023 | 0.384 ± 0.02 |
| TTTTTTGCTGATGAGCATGATTTTTTTTTTTTTTTACCTC [CTCCA] | 0.438 ± 0.0039 | 0.271 ± 0.016 |
| TTTTTTGCTGATGAGCATGCTTTTTTTTTTTTTTTACCTA [ATCCA] | 0.449 ± 0.018 | 0.366 ± 0.019 |
| TTTTTTGCTGATGATCAGCATTTTTTTTTTTTTTTACCGT [TGCCA] | 0.624 ± 0.025 | 0.479 ± 0.034 |
| TTTTTTGCTGATGATCATCATTTTTTTTTTTTTTTACCGG [GGCCA] | 0.69 ± 0.03 | 0.551 ± 0.059 |
| TTTTTTGCTGATGATCATGATTTTTTTTTTTTTTTACCGC [CGCCA] | 0.592 ± 0.014 | 0.406 ± 0.026 |
| TTTTTTGCTGATGATCATGCTTTTTTTTTTTTTTTACCGA [AGCCA] | 0.601 ± 0.025 | 0.515 ± 0.031 |
| TTTTTTGCTGATGATGAGCATTTTTTTTTTTTTTTACCCT [TCCCA] | 0.446 ± 0.023 | 0.34 ± 0.021 |
| TTTTTTGCTGATGATGATCATTTTTTTTTTTTTTTACCCG [GCCCA] | 0.505 ± 0.03 | 0.411 ± 0.03 |
| TTTTTTGCTGATGATGATGATTTTTTTTTTTTTTTACCCC [CCCCA] | 0.358 ± 0.016 | 0.271 ± 0.027 |
| TTTTTTGCTGATGATGATGCTTTTTTTTTTTTTTTACCCA | 0.462 ± 0.029 | 0.351 ± 0.019 |
| TTTTTTGCTGATGATGCGCATTTTTTTTTTTTTTTACCAT | 0.499 ± 0.026 | 0.364 ± 0.024 |

| Sequence | background-corrected fluorescence (dye: Cy3 (3' terminal)) | background-corrected fluorescence (dye: Cy5 (3' terminal)) |
| --- | --- | --- |
| TTTTTTGCTGATGATGCTCATTTTTTTTTTTTTTTACCAG [GACCA] | 0.516 ± 0.024 | 0.378 ± 0.028 |
| TTTTTTGCTGATGATGCTGATTTTTTTTTTTTTTTACCAC [CACCA] | 0.405 ± 0.01 | 0.286 ± 0.018 |
| TTTTTTGCTGATGATGCTGCTTTTTTTTTTTTTTTACCAA [AACCA] | 0.485 ± 0.029 | 0.402 ± 0.022 |
| TTTTTTGCTGATGCGCAGCATTTTTTTTTTTTTTTACATT | 0.546 ± 0.011 | 0.384 ± 0.021 |
| TTTTTTGCTGATGCGCATCATTTTTTTTTTTTTTTACATG [GTACA] | 0.519 ± 0.03 | 0.409 ± 0.023 |
| TTTTTTGCTGATGCGCATGATTTTTTTTTTTTTTTACATC [CTACA] | 0.392 ± 0.027 | 0.322 ± 0.018 |
| TTTTTTGCTGATGCGCATGCTTTTTTTTTTTTTTTACATA [ATACA] | 0.591 ± 0.025 | 0.403 ± 0.038 |
| TTTTTTGCTGATGCTCAGCATTTTTTTTTTTTTTTACAGT [TGACA] | 0.629 ± 0.039 | 0.474 ± 0.03 |
| TTTTTTGCTGATGCTCATCATTTTTTTTTTTTTTTACAGG [GGACA] | 0.646 ± 0.034 | 0.511 ± 0.053 |
| TTTTTTGCTGATGCTCATGATTTTTTTTTTTTTTTACAGC [CGACA] | 0.508 ± 0.023 | 0.404 ± 0.024 |
| TTTTTTGCTGATGCTCATGCTTTTTTTTTTTTTTTACAGA [AGACA] | 0.615 ± 0.02 | 0.459 ± 0.036 |
| TTTTTTGCTGATGCTGAGCATTTTTTTTTTTTTTTACACT [TCACA] | 0.51 ± 0.018 | 0.35 ± 0.033 |
| TTTTTTGCTGATGCTGATCATTTTTTTTTTTTTTTACACG [GCACA] | 0.504 ± 0.029 | 0.422 ± 0.054 |
| TTTTTTGCTGATGCTGATGATTTTTTTTTTTTTTTACACC [CCACA] | 0.369 ± 0.022 | 0.275 ± 0.012 |
| TTTTTTGCTGATGCTGATGCTTTTTTTTTTTTTTTACACA | 0.469 ± 0.022 | 0.374 ± 0.031 |
| TTTTTTGCTGATGCTGCGCATTTTTTTTTTTTTTTACAAT [TAACA] | 0.525 ± 0.028 | 0.396 ± 0.021 |
| TTTTTTGCTGATGCTGCTCATTTTTTTTTTTTTTTACAAG [GAACA] | 0.53 ± 0.015 | 0.425 ± 0.021 |
| TTTTTTGCTGATGCTGCTGATTTTTTTTTTTTTTTACAAC [CAACA] | 0.448 ± 0.0078 | 0.302 ± 0.032 |
| TTTTTTGCTGATGCTGCTGCTTTTTTTTTTTTTTTACAAA [AAACA] | 0.581 ± 0.022 | 0.499 ± 0.064 |
| TTTTTTGCTGCGCAGCAGCATTTTTTTTTTTTTTTAATTT | 0.559 ± 0.029 | 0.39 ± 0.025 |
| TTTTTTGCTGCGCAGCATCATTTTTTTTTTTTTTTAATTG [GTTAA] | 0.561 ± 0.03 | 0.381 ± 0.025 |
| TTTTTTGCTGCGCAGCATGATTTTTTTTTTTTTTTAATTC [CTTAA] | 0.419 ± 0.015 | 0.297 ± 0.018 |
| TTTTTTGCTGCGCAGCATGCTTTTTTTTTTTTTTTAATTA [ATTAA] | 0.564 ± 0.022 | 0.43 ± 0.027 |
| TTTTTTGCTGCGCATCAGCATTTTTTTTTTTTTTTAATGT [TGTAA] | 0.616 ± 0.033 | 0.507 ± 0.031 |
| TTTTTTGCTGCGCATCATCATTTTTTTTTTTTTTTAATGG [GGTAA] | 0.645 ± 0.023 | 0.51 ± 0.048 |
